Literature values as cited in patent publication US20040253306A1, “Sustained release formulations for nifedipine dextromethorphan, and danazol” (priority 2001, published 2004).

Conditions: oral; free vs liposomes having ceramides

Substance: superoxide dismutase
- bioavailability: 14%
